For four proteins, β(193-209): cleavage of β-casein results are on record in US20180187179.

For this data set, the target named is T1, β-casein, P02666.
T1 chain: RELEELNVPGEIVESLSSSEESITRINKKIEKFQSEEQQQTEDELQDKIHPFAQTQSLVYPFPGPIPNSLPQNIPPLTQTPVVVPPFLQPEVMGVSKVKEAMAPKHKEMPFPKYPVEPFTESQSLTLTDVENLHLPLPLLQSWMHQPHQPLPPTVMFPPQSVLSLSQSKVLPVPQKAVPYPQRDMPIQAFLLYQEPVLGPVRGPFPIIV
Particulars: scale: % cleavage of non-glycosylated camel chymosin.

Positions count from the first letter of the chain named. Names and notes keep the numbering of the source.

B1: camel chymosin variant 282 (Q280E+N100Q+N291Q) (protein)
chain: GKVAREPLTSYLDSQYFGKIYIGTPPQEFTVVFDTGSSDLWVPSIYCKSNVCKNHHRFDPRKSSTFRNLGKPLSIHYGTGSMEGFLGYDTVTVSNIVDPQQTVGLSTEQPGEVFTYSEFDGILGLAYPSLASEYSVPVFDNMMDRHLVARDLFSVYMDRNGQGSMLTLGAIDPSYYTGSLHWVPVTLQQYWQFTVDSVTINGVAVACVGGCQAILDTGTSVLFGPSSDILKIQMAIGATENRYGEFDVNCGNLRSMPTVVFEINGRDYPLSPSAYTSKDEGFCTSGFQGDQNSELWILGDVFIREYYSVFDRANNRVGLAKAI
On to B1, for which the β(193-209): cleavage of β-casein at position 192/193 came out at 85.

B2: camel chymosin variant 283 (F282E+N100Q+N291Q) (protein)
chain: B1 chain with E280Q, F282E
As for B2, the β(193-209): cleavage of β-casein at position 192/193 was 79.

B3: camel chymosin variant 286 (R242E+N100Q+N291Q) (protein)
chain: B1 chain with R242E, E280Q
As for B3, the β(193-209): cleavage of β-casein at position 192/193 worked out at 89.

B4: camel chymosin variant 285 (R254S+N100Q+N291Q) (protein)
chain: B1 chain with R254S, E280Q
As for B4, the β(193-209): cleavage of β-casein at position 192/193 came out at 78.
